The subject of one data set is PaCa-2/GnT-V cell. Description: GnT-V activity in culture solution (production of secretory type GnT-V), PaCa-2/GnT-V cell. It counts as cell-based. As to conditions: 100 μM in DMSO, FIG. 10A.
The subject of the next data set is KB/GnT-V cell. Kind of data set: GnT-V activity in culture solution (production of secretory type GnT-V), KB/GnT-V cell. It counts as cell-based. The following applies: 100 μM in DMSO, FIG. 10B.
A further data set concerns HSPG on HUVEC. Kind of data set: release of FGF-2 from HSPG on HUVEC (FGF-2 ELISA of supernatant). It counts as cell-based, human. The following applies: 4° C., 2 hours; FIG. 5. The text has this: A basic peptide (KRKRKK peptide) composed of Lys-Arg-Lys-Arg-Lys-Lys (SEQ ID NO: 11) which is an amino acid sequence of from 264 to 269 and a non-basic control peptide (FSGGPL peptide) composed of Phe-Ser-Gly-Gly-Pro-Leu (SEQ ID NO: 12) which is an amino acid sequence of from 291 to 296, of GnT-V, were synthesized, and an influence of these peptides on growth of HUVEC was examined. The peptide was synthesized by a peptide synthesizer A432 (manufactured by Applied Biosystems), and purified by reverse phase HPLC, then, its molecular weight and degree of purification were confirmed by MALDI TOF-MS (Voyager-DE (registered trademark) RP; manufactured by PerSeptive Biosystems). The concentration of FGF-2 was measured by a known method (Barillari, G., et al., American J. Patho. 152, 1161-1166 (1998)). […] After centrifugation at 4° C. and 3000 rpm for 5 minutes, the supernatant was collected, the concentration of FGF-2 in the supernatant was measured in an FGF-2 ELISA system (manufactured by R&D Systems) according to a manual of this system.
As described above, various deficient variants of GnT-V and synthetic peptides were added at 4° C. to culture solution of HUVEC, and the amount of FGF-2 released from HSPG on HUVEC was measured.
For orientation: In an ELISA, binding on a coated surface is turned into a signal by an enzyme label.

The subject of another data set is chicken microvessels. Description: CAM (chorioallantoic membrane) assay of neovascularization. It counts as in vivo. As to conditions: ex-vivo, chicken embryo CAM. How it is done:
Acceleration of neovascularization by a GnT-V transformant was confirmed by a CAM (chorioallantoic membrane) assay using an embryo of a chicken fertilized egg. The CAM assay was conducted by a method of Yen et al. (Yen, L., et al., Oncogene 19, 3460-3469 (2000)) and a method of Bernardini (Bernardini, G., et al., Blood 96, 4039-4045 (2000)), both being slightly modified. CAM 8 days after fertilization of white Leghorn was used, and 1×10^5 cells thereof were inoculated on a collagen sponge and maintained for 4 hours. A 5 mm silicon ring was placed on CAM on the collagen sponge and maintained for 48 hours.
(§1) Induction of neovascularization by GnT-V was confirmed also by other in vitro neovascularization assays such as a capillary-like tube formation assay (Ashoton, A. W., et al., J. Biol. Chem. 274, 35562-35570 (1999)) and a migration assay (Zeng, H., et al., J. Biol. Chem. 276, 3271-3279 (2001)) using HUVEC.

Data set [1] relates to HUVEC. Description: HUVEC differentiation and growth, incorporation of [3H]-thymidine (DNA synthesis). The following applies: [3H]-thymidine incorporation; FIG. 2, 3B, 6. It counts as cell-based, human. As for the experimental part: For in vitro evaluation of induction of neovascularization by a GnT-V transformant, the amount of synthesis of DNA of human umbilical vein […] cells (HUVEC) after stimulation with culture solution of a GnT-V transformant was measured by a method of Soker et al.(Soker, S., et al., J. Biol. Chem. 272, 31582-31588 (1997)). HUVEC was inoculated on a 96-well plate coated with type I collagen at a rate of 2×10^3 cells per well, and 24 hours later, the medium was substituted with an MCDB131 medium (not containing FBS and FGF-2) containing 0.1% […] and a starved condition was maintained for 24 hours. The medium was substituted with culture solution of the WiDr cell transformed with the glycosyltransferase gene described in Example 1, and HUVEC was stimulated for 24 hours. HUVEC was maintained for 8 hours with [^3H]-thymidine (1 μCi/ml), and incorporation of [^3H]-thymidine into HUVEC was analyzed by MicroBeta-Counter (manufactured by Wallac) to measure the amount of synthesis of DNA. The result was shown as the mean value of assay results of 6 wells, and the standard deviation was measured. All experiments were repeated at least three times, and the same results were obtained. As apparent from FIG. 1, DNA synthesis of HUVEC stimulated with the culture solution of WiDr cells transformed with a GnT-V gene increased, however, the same effect was not observed in culture solution of WiDr cells transformed with other glycosyltransferase genes.
Purification of a neovascularization factor present in culture solution of WiDr cells transformed with a GnT-V gene was conducted using various column chromatographies. The neovascularization activity of each fraction was evaluated by differentiation and growth of HUVEC described in Example 3. In heparin affinity chromatography, a fraction of high growth activity of HUVEC was eluted with 0.3 M NaCl. Since known growth factors such as FGF-1, FGF-2, VEGF, placenta-induced growth factor (PIGF) and hepatocyte growth factor (HGF) and the like are eluted with 0.8 to 1.5 M NaCl (Hauser, S. & Weich H. A., Growth Factor 9, 259-268 (1993). Gohda, E., et al., J. Clin. Invest. 81, 414-419 (1998). Marez, A., et al., Biochimie 69, 125-129 (1987). Risau, W., et al., The EMBO J. 7, 959-962 (1988). Rothenthal, R. A., et al., Growth Factor 4, 53-59 (1990)), the above-mentioned nature is utterly different from the natures of these known growth factors. […] A fraction eluted with 0.3 M NaCl in heparin affinity chromatography was subjected to Western blot analysis using an anti-GnT-V antibody to find that the reaction of the anti-GnT-V antibody and the differentiation and growth activity of HUVEC are consistent each other, and the main protein having a differentiation and growth activity of HUVEC present in the fraction is GnT-V itself.

Data set [2] can be described thus: glycosyltransferase activity of GnT-V deficient variants. It is filed as biochemical. The following applies: recombinant variants from Sf21 cells. The text has this:
For clarifying which domain of GnT-V is involved in HUVEC growth accelerating activity, a GnT-V lacking variant shown in FIG. 3A was produced. The method of production of a GnT-VΔ188 plasmid is disclosed in a literature of Sasai et al (Sasai, K., et al., Glycobiology (in press)). A transfer plasmid having a GnT-VΔ233 gene was produced by binding a DNA fragment of 1521 base pairs encoding polyhistidine tag at the C-terminal and an amino acid sequence of from Glu234 to Leu741 of human GnT-V, obtained by cutting a GnT-VΔ188 plasmid with EcoRI and EagI, to an EcoRI-EagI site of a transfer vector pAcGP67-A (manufactured by PharMingen). A transfer plasmid having a GnT-VΔ436 gene was produced by binding a DNA fragment of 912 base pairs encoding polyhistidine tag at the C terminal and an amino acid sequence of from Ile437 to Leu741, of human GnT-V, obtained by cutting a GnT-VΔ188 plasmid with EcoRV and EagI, to an EcoRV-EagI site of a transfer vector pAcGP67-A. For production of a recombinant Baculovirus, an insect cell Sf21 was transformed with the transfer plasmid obtained above according to a method known in a literature (Ikeda, Y., et al., J. Biochem. 128, 609-619 (2000)). The recombinant glycosyltransferase derived from the transformed Sf21 cell was purified by Ni^2+-chelating affinity chromatography according to a method disclosed in a literature of Sasaki et al (Sasai, K., et al., Glycobiology (in press)).

For data set [3], the system named is HUVEC. Kind of data set: capillary-like tube formation assay using HUVEC. It counts as cell-based, human.
Source text: as §1

The test system of data set [4] is HUVEC. Kind of data set: migration assay using HUVEC. It is filed as cell-based, human.
Source text: as §1

*1 amine or outer side, *2 acyl side, *3 side chain or, on linkers, in order; H or OH if unused. Where a SMILES comes first, the peptide text is derived from it. [ ]: non-standard residue; d: D form. The star is where a group is joined. X1 = CC(N[*:1])C(=O)C(F)(F)C(=O)[*:2]; Boc = CC(C)(C)OC(=O)*

Consider `CCC(C)C(NC(=O)C(NC(=O)OC(C)(C)C)C(C)C)C(=O)NC(C)C(=O)C(F)(F)C(=O)NC(C(=O)NC(C(=O)OC)C(C)CC)C(C)C` (centres unmarked) [DFK167] (Boc-VI[X1]VI-OMe; configuration not given here), for which the “GnT-V activity in culture solution” value in the data set on PaCa-2/GnT-V cell and in the data set on KB/GnT-V cell was “could not be detected” throughout.

B1: GnT-VΔ436: GnT-V lacking variant, amino acid sequence from Ile437 to Leu741 of human GnT-V with C-terminal polyhistidine tag (protein, UniProt Q09328 437-741, looked up, fragment)
chain: IHHINEIKRQNQSLVYGKVDSFWKNKKIYLDIIHTYMEVHATVYGSSTKNIPSYVKNHGILSGRDLQFLLRETKLFVGLGFPYEGPAPLEAIANGCAFLNPKFNPPKSSKNTDFFIGKPTLRELTSQHPYAEVFIGRPHVWTVDLNNQEEVEDAVKAILNQKIEPYMPYEFTCEGMLQRINAFIEKQDFCHGQVMWPPLSALQVKLAEPGQSCKQVCQESQLICEPSFFQHLNKDKDMLKYKVTCQSSELAKDILVPSFDPKNKHCVFQGDLLLFSCAGAHPRHQRVCPCRDFIKGQVALCKDCL
modifications: C-terminal His tag
Take B1: in the data set on HSPG on HUVEC, the “release of FGF-2 from HSPG on HUVEC” value is “did not affect release of FGF-2”. In addition, the “induction of neovascularization in CAM assay” value with chicken microvessels is given as “did not have a neovascularization activity”. Moreover, the “differentiation and growth of HUVEC (HUVEC growth accelerating activity)” value in the data set with HUVEC [1] was “did not have an HUVEC growth and differentiation accentuation action”. The glycosyltransferase activity entry in data set [2] is “had no glycosyltransferase activity”.

B2: GnT-V: secretory type glycosyltransferase N-acetylglucosaminyltransferase V (protein, UniProt Q09328 1-741, looked up)
Alpha-1,6-mannosylglycoprotein …: MALFTPWKLSSQKLGFFLVTFGFIWGMMLLHFTIQQRTQPESSSMLREQILDLSKRYIKALAEENRNVVDGPYAGVMTAYDLKKTLAVLLDNILQRIGKLESKVDNLVVNGTGTNSTNSTTAVPSLVALEKINVADIINGAQEKCVLPPMDGYPHCEGKIKWMKDMWRSDPCYADYGVDGSTCSFFIYLSEVENWCPHLPWRAKNPYEEADHNSLAEIRTDFNILYSMMKKHEEFRWMRLRIRRMADAWIQAIKSLAEKQNLEKRKRKKVLVHLGLLTKESGFKIAETAFSGGPLGELVQWSDLITSLYLLGHDIRISASLAELKEIMKKVVGNRSGCPTVGDRIVELIYIDIVGLAQFKKTLGPSWVHYQCMLRVLDSFGTEPEFNHANYAQSKGHKTPWGKWNLNPQQFYTMFPHTPDNSFLGFVVEQHLNSSDIHHINEIKRQNQSLVYGKVDSFWKNKKIYLDIIHTYMEVHATVYGSSTKNIPSYVKNHGILSGRDLQFLLRETKLFVGLGFPYEGPAPLEAIANGCAFLNPKFNPPKSSKNTDFFIGKPTLRELTSQHPYAEVFIGRPHVWTVDLNNQEEVEDAVKAILNQKIEPYMPYEFTCEGMLQRINAFIEKQDFCHGQVMWPPLSALQVKLAEPGQSCKQVCQESQLICEPSFFQHLNKDKDMLKYKVTCQSSELAKDILVPSFDPKNKHCVFQGDLLLFSCAGAHPRHQRVCPCRDFIKGQVALCKDCL
Regarding B2, the “induction of neovascularization, capillary-like tube formation” value in the data set on HUVEC [3] was “confirmed”. Moreover, in the data set on HUVEC [4], the “induction of neovascularization, migration” value is recorded as “confirmed”.

B3: GnT-VΔ233: GnT-V lacking variant, amino acid sequence from Glu234 to Leu741 of human GnT-V with C-terminal polyhistidine tag (protein, UniProt Q09328 234-741, looked up, fragment)
chain: EFRWMRLRIRRMADAWIQAIKSLAEKQNLEKRKRKKVLVHLGLLTKESGFKIAETAFSGGPLGELVQWSDLITSLYLLGHDIRISASLAELKEIMKKVVGNRSGCPTVGDRIVELIYIDIVGLAQFKKTLGPSWVHYQCMLRVLDSFGTEPEFNHANYAQSKGHKTPWGKWNLNPQQFYTMFPHTPDNSFLGFVVEQHLNSSDIHHINEIKRQNQSLVYGKVDSFWKNKKIYLDIIHTYMEVHATVYGSSTKNIPSYVKNHGILSGRDLQFLLRETKLFVGLGFPYEGPAPLEAIANGCAFLNPKFNPPKSSKNTDFFIGKPTLRELTSQHPYAEVFIGRPHVWTVDLNNQEEVEDAVKAILNQKIEPYMPYEFTCEGMLQRINAFIEKQDFCHGQVMWPPLSALQVKLAEPGQSCKQVCQESQLICEPSFFQHLNKDKDMLKYKVTCQSSELAKDILVPSFDPKNKHCVFQGDLLLFSCAGAHPRHQRVCPCRDFIKGQVALCKDCL
modifications: C-terminal His tag
As to B3, the “release of FGF-2 from HSPG on HUVEC” value in the data set with HSPG on HUVEC is given as “released FGF-2”. Also, in the data set on HUVEC [1], the “differentiation and growth of HUVEC (HUVEC growth accelerating activity)” value is “had an HUVEC growth and differentiation accentuation action”. Also, the glycosyltransferase activity entry in data set [2] is “had no glycosyltransferase activity”.
